Data on two molecules can be found in patent US20070065447A1 (Novo Nordisk, published 2007).

Bridge positions count the residues as written; N and C are the ends. Ends that are not written are not given here.

For test [1], the target named is T1, cyclic peptide X252 (Ln-5 residues 394-415 + R) (human, Cys-Cys disulfide bond (cyclic peptide)).
T1 construct: Used unpurified
T1 peptide: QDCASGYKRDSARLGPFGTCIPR
The experiment in a line: direct ELISA, peptide coated at 50 µg/ml (controls 5 µg/ml), antibody 100 ng/well, A450/620, mean of three ± SD. How it is done:
The identity of these peptides was verified by mass spectrometry. Solutions containing the five peptides, in an unpurified state, were individually subjected to direct ELISA analysis using standard techniques. Briefly, NUNC-IMMUNO plates were coated with 100 μl/well of 50 μg/ml peptide in carbonate buffer and allowed to sit overnight at +4° C. […] The plates were washed five times with PBS to remove unbound peptide and subjected to one hour blocking at room temperature by exposure with a washing/blocking buffer (0.05% Tween-20 in PBS (PBST)), which was thereafter removed. 100 ng of antibody (100 μl of solution containing an antibody solution at a concentration of 1 μg antibody/ml) for each of the three mAbs (4G1, 5D5, and 6C12) was added to the test wells. Dilution buffer was added to the control wells. […]
100 μl HRP-anti-mouse secondary Ab diluted in a dilution buffer at a ratio of 1:2000 was added to each well and the plates were incubated for one hour at room temperature, and thereafter washed 4 times with PBST. The plates were then developed with 100 μl TMB substrate for a period of 15-30 minutes in the dark (during which time the plates were monitored for color development). […] Absorbance measurements were taken at 450 nm and 620 nm, ratios of absorbance determined, and the data evaluated. […]
For orientation: ELISA stands for enzyme-linked immunosorbent assay.

For test [2], the target named is T2, GST-γ2III fusion protein (glutathione S-transferase:γ2 DIII fragment fusion protein, human laminin γ2 amino … (human)).
T2 construct: also called GST-γ2DIII; GST-γ2 DIII
The experiment in a line: SPR (BIAcore, RAMFc chip, HBS-EP buffer), mAb against GST-γ2DIII fusion protein. How it is done: Resulting reflection/refractive index data obtained from these analyses (at 200 nM, 500 nM, 200 nM, 50 nM, and 20 nM) are presented individually in FIGS. 19A-19C.
For orientation: SPR reads the build-up and loss of mass on a sensor chip optically.

Another test concerns the target T3, BSA (bovine, UniProt P02769).
T3 construct: also called bovine serum albumin
The experiment in a line: direct ELISA, fusion proteins coated at 100 ng/well, A405 (Example 3, second experiment). How it is done: (§1) The stepwise protocol set forth below was used for the ELISAs, which were performed with biotinylated mAb 4G1, mAb 5D5, and mAb 6C12 (GST, BSA, and plastic used as controls in the first experiment; GST and BSA only in the second experiment) and the γ2 DIII antigens individually (GST-γIII-20 was only tested in the second experiment; nonspecific biotinylated Ig was used as a control for the antibodies in both experiments). All incubations were performed at room temperature except step 1, below. 100 μl of reagents were used per well for incubations and 200 μl of PBST for washings unless otherwise mentioned. In addition, shaking the plate can be helpful for incubations.
(§2) ELISA plates were coated with 100 μl GST-γ2III chain fragments at concentration of 1 μg/ml in 0.1 M carbonate/bicarbonate buffer, pH 9, o/n at +4° C. (100 ng/well). The coated plates were washed three times with PBST. Non-specific binding was blocked with BSA-PBS incubation for 90 minutes (200 μl/well). Dilutions of reference standards, negative controls (quality controls), and sample were diluted in BSA-PBS and thereafter incubated for 1 h at room temperature. The plates were again washed three times with PBST. HRP-conjugated anti-mouse IgG secondary antibody was added to the wells (diluted 1:5000 in PBS) and allowed to incubate for 30 minutes. The plates were washed again three times with PBST. ABTS-peroxidase substrate was added. Substrates were prepared immediately before use: ABTS-stock (10×) was diluted with Citrate buffer (see Example 1); 2 μl of 30% hydrogen […] was added to each well and mixed. Substrate was added to the wells and incubated in dark conditions for 30 minutes. Absorbance was read with a microtitre plate reader at 405 nm after 30 min and after 60 min.

Test [3] concerns the target T4, GST-γ2III-7 (a.a. residues 461-653) (human, UniProt Q13753 461-653).
T4 construct: Recombinant GST-γ2III-chain fragment; not shown: glutathione S-transferase (GST) fusion partner
T4 sequence: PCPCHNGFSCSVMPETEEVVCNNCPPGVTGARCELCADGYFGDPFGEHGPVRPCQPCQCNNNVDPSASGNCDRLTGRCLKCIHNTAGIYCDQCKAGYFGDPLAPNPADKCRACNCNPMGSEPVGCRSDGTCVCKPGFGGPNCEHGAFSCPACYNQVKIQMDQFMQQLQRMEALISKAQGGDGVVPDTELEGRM
The experiment in a line: direct ELISA, fusion proteins coated at 100 ng/well, A405 (Example 3, first experiment). On the procedure:
as §1
ELISA plates were coated with 100 μl GST-γ2III chain fragments at concentration of 1 μg/ml in 0.1 M carbonate/bicarbonate buffer, pH 9, o/n at +4° C. (100 ng/well). The coated plates were washed three times with PBST. Non-specific binding was blocked with BSA-PBS incubation for 90 minutes (200 μl/well). Dilutions of reference standards, negative controls (quality controls), and sample were diluted in BSA-PBS and thereafter incubated for 1 h at room temperature. The plates were again washed three times with PBST. […] Absorbance was read with a microtitre plate reader at 405 nm after 30 min and after 60 min.

The target of test [4] is T5, cyclic peptide X255 (R+, Ln-5 residues 518-537) (human, Cys-Cys disulfide bond (cyclic peptide)).
T5 peptide: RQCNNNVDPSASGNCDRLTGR
The experiment in a line: direct ELISA on coated cyclic peptides. How it is done:
(§3) The identity of these peptides was verified by mass spectrometry. Solutions containing the five peptides, in an unpurified state, were individually subjected to direct ELISA analysis using standard techniques. Briefly, NUNC-IMMUNO plates were coated with 100 μl/well of 50 μg/ml peptide in carbonate buffer and allowed to sit overnight at +4° C. […] The plates were washed five times with PBS to remove unbound peptide and subjected to one hour blocking at room temperature by exposure with a washing/blocking buffer (0.05% Tween-20 in PBS (PBST)), which was thereafter removed. 100 ng of antibody (100 μl of solution containing an antibody solution at a concentration of 1 μg antibody/ml) for each of the three mAbs (4G1, 5D5, and 6C12) was added to the test wells. Dilution buffer was added to the control wells. The plates were incubated at room temperature for one hour, and thereafter washed four times in PBST.
(§4) 100 μl HRP-anti-mouse secondary Ab diluted in a dilution buffer at a ratio of 1:2000 was added to each well and the plates were incubated for one hour at room temperature, and thereafter washed 4 times with PBST. The plates were then developed with 100 μl TMB substrate for a period of 15-30 minutes in the dark (during which time the plates were monitored for color development). At an appropriate time, the reaction was stopped in each well with the addition of 4M H3PO4. Absorbance measurements were taken at 450 nm and 620 nm, ratios of absorbance determined, and the data evaluated. These experiments were performed in triplicate.

For test [5], the target named is T6, cyclic peptide X253 (Ln-5 residues 425-444) (human, Cys-Cys disulfide bond (cyclic peptide)).
T6 construct: Used unpurified
T6 peptide: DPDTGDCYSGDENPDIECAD
The experiment in a line: direct ELISA on coated cyclic peptides. How it is done: as §3, §4

Test [6] addresses T7, cyclic peptide X256 (Ln-5 residues 539-552 + R) (human, disulfide 3-12 (inferred)).
T7 peptide: LKCIHNTAGIYCDQR
The experiment in a line: direct ELISA on coated cyclic peptides. How it is done:
as §3, §4

Test [7] has as its target T8, cyclic peptide X254 (Ln-5 residues 494-516, +E) (human, Cys-Cys disulfide bond (cyclic peptide)).
T8 peptide: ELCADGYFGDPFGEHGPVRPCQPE
The experiment in a line: direct ELISA on coated cyclic peptides. How it is done: as §3, §4

The target of test [8] is T9, GST-γ2III-20 (a.a. residues 461-534) (human, UniProt Q13753 461-534).
T9 construct: Recombinant GST-γ2III-chain fragment, used in the second set of experiments only; also called GST-γIII-20; not shown: glutathione S-transferase (GST) fusion partner
T9 sequence: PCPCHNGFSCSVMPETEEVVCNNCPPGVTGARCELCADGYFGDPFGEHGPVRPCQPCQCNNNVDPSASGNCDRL
The experiment in a line: direct ELISA, fusion proteins coated at 100 ng/well, A405 (Example 3, second experiment). On the procedure: as §1, §2

T2 sequence (chain, as listed by the source limits assumed): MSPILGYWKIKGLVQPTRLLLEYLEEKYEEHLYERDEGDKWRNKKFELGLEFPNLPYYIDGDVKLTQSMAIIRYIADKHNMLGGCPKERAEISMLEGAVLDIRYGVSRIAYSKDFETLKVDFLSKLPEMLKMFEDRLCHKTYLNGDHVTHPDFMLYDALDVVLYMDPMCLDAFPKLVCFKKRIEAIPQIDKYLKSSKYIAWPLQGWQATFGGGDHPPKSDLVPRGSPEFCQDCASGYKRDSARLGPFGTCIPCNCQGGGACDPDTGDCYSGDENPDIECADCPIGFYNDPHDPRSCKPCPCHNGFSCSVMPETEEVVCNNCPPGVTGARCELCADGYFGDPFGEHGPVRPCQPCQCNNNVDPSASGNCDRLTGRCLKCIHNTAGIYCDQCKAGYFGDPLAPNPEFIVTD
T3 sequence (P02769 25-607 limits assumed): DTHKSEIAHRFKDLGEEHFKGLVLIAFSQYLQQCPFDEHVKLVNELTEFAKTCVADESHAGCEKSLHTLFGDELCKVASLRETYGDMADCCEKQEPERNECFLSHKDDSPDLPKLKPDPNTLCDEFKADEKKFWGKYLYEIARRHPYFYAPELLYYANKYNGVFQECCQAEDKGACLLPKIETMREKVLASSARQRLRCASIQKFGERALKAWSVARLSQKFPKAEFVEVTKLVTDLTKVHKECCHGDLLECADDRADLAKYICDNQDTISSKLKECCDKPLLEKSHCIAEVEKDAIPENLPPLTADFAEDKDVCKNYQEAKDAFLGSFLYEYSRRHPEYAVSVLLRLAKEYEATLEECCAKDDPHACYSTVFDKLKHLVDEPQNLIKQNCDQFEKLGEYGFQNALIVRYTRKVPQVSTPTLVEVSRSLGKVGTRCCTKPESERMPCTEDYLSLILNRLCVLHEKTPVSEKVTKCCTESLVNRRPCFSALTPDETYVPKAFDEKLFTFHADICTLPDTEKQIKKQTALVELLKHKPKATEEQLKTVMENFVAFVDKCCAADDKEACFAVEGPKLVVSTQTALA

B1: mAb 6C12 (antibody, V domains shown)
VH: DVHLQESGPGLVKPSQSLSLTCTVTGYSITSDYAWNWIRQFPGNRLEWMGYITYSGGTNYNPSLKSRISFTRDTSKNQFFLQLNSVTTEDTATYYCANNFYGNFFDYWGQGTTLTVSS
VL: QIVLTQSPAIMSASPGEKVTMTCSASSSVSYIHWYQQKSGTSPKRWIYDTSKLASGVPARFSGSGSGTSYSLTISSMQAEDAATYYCQQWSSSPPTFGGGTKLEIK
notes: Murine anti-γ2 DIII monoclonal antibody from hybridoma 6C12, deposited at DSMZ as DSM ACC2653; Biotinylated in some ELISAs; also called monoclonal antibody 6C12; DSM ACC2653
On to B1, for which the binding result in test [1] is reported as “no binding (tested: 1 µg/ml)”. In addition, in test [2], binding was put at a Kd of 23.3 nM, the koff stood at 0.000387 s⁻¹ and the kon stood at 16600 M⁻¹ s⁻¹. The binding result in the test with BSA is listed as “no binding”.

B2: mAb 4G1 (antibody, V domains shown)
VH: EVKLEESGGGLVQPGGSMKLSCVASGFTFSNFWMNWVRQSPEKGLEWVAEIRLKSNNYATHYAESLKGRFTISRDDSKSNVYLQMNNLRPEDTGIYYCTRDYYGSSFAYWGQGTLVTVSA
VL: DIVMTQAAFSNPVTLGTSASISCRSSKSLLHNIGITYLFWYLQKPGQSPQLLIYQMSKLASGVPDRFSGSGSGTDFTLRISRVEAEDVGIYYCAQNLELPPTFGSGTKLEIK
notes: Murine anti-γ2 DIII monoclonal antibody from hybridoma 4G1 (available from DAKO Cytomation); Biotinylated in some ELISAs; also called monoclonal antibody 4G1; γ2 DIII mAb 4G1
In turn, B2 registered a Kd in test [2] of 11.4 nM. For the same molecule, the koff in [2] stood at 0.000106 s⁻¹. Further, the kon in test [2] stood at 9280 M⁻¹ s⁻¹. In addition, the binding result (in test [3]; in [4]; in test [5]; in [6]; in [7]; with BSA) was “no binding” each time. The binding result in test [8] was “no binding”.

For orientation: Kd means the constant that tells how readily two partners part at equilibrium. A lower Kd goes with tighter binding. Broadly, the koff is the first-order rate constant of dissociation. A lower koff goes with a long-lived complex. What is called kon is a measure of how fast the partners come together.
